Data from FireProtDB (doi:10.1021/bi9929958).

Conditions: Homo sapiens; pH 7.8; Thermal; DSC; Potassium phosphate 20 mM; reversible: yes; whole UniProt chain shown

B1: Superoxide dismutase [Mn], mitochondrial wild type, P04179 (protein)
chain: MLSRAVCGTSRQLAPVLGYLGSRQKHSLPDLPYDYGALEPHINAQIMQLHHSKHHAAYVNNLNVTEEKYQEALAKGDVTAQIALQPALKFNGGGHINHSIFWTNLSPNGGGEPKGELLEAIKRDFGSFDKFKEKLTAASVGVQGSGWGWLGFNKERGHLQIAACPNQDPLQGTTGLIPLLGIDVWEHAYYLQYKNVRPDYLKAIWNVINWENVTERYMACKK
Which Tm does the source give for B1 here?
Its Tm is 88.9 °C.
